± gives the uncertainty stated by the source.
B1: Double-stranded RNA-binding protein Staufen homolog 1, residues 183 to 249; numbered along this chain, O95793 (parent)
chain: KSEISQVFEIALKRNLPVNFEVARESGPPHMKNFVTKVSVGEFVGEGEGKSKKISKKNAAIAVLEEL

Variants of: B1
Assay: abundance fitness (aPCA) (normalised: wild type 0, dead -1); higher = more abundant; growth selection in yeast, the domain comes from the species named
Conditions: Homo sapiens

Abundance fitness of substitutions, site by site:
E46: K -0.04 ± 0.084; N 0.01 ± 0.16; T 0.071 ± 0.06; I 0.052 ± 0.14; Y -0.013 ± 0.13; P -0.939 ± 0.12; C -0.034 ± 0.1; G -0.449 ± 0.067; W 0.039 ± 0.069; A -0.151 ± 0.055; S -0.051 ± 0.069; Q 0.051 ± 0.079; H 0.011 ± 0.088; V 0.036 ± 0.048; M 0.028 ± 0.088; F 0.076 ± 0.14
H30: W -0.365 ± 0.064; I -0.288 ± 0.066; L -0.255 ± 0.037; P -0.221 ± 0.046; C -0.207 ± 0.066; M -0.115 ± 0.06; Y -0.208 ± 0.054; K 0.022 ± 0.052; R -0.077 ± 0.039; A -0.139 ± 0.043; V -0.353 ± 0.045; F -0.278 ± 0.056; N 0.078 ± 0.064; S -0.114 ± 0.043; E -0.037 ± 0.058; Q -0.11 ± 0.055; G -0.017 ± 0.039
M31: Y -0.089 ± 0.066; H 0.079 ± 0.076; S 0.113 ± 0.038; L -0.098 ± 0.035; P -0.132 ± 0.051; K 0.104 ± 0.053; V -0.099 ± 0.042; W -0.208 ± 0.038; I -0.12 ± 0.061; Q 0.049 ± 0.044; E 0.103 ± 0.049; G -0.013 ± 0.036; N 0.083 ± 0.068; T 0.019 ± 0.044; C 0.073 ± 0.047; R 0.025 ± 0.029; F -0.263 ± 0.059; D 0.199 ± 0.067
P28: V -0.278 ± 0.052; H -0.123 ± 0.091; N -0.152 ± 0.091; S -0.089 ± 0.045; T -0.177 ± 0.07; Y -0.342 ± 0.073; K -0.218 ± 0.057; W -0.316 ± 0.046; I -0.322 ± 0.067; F -0.35 ± 0.07; Q -0.202 ± 0.063; E -0.153 ± 0.062; G -0.111 ± 0.038; M -0.303 ± 0.062
K37: C -0.251 ± 0.23; N -0.328 ± 0.2; R 0.034 ± 0.059; Y -0.681 ± 0.27; G -0.758 ± 0.1; L -0.311 ± 0.077; E -0.553 ± 0.099; S -0.364 ± 0.12; I -0.529 ± 0.21; T -0.364 ± 0.099; V -0.345 ± 0.082; H -0.292 ± 0.14; Q -0.25 ± 0.15; P -0.756 ± 0.12; A -0.293 ± 0.1; F -0.58 ± 0.28; W -0.442 ± 0.13
V35: G -0.497 ± 0.034; I 0.046 ± 0.051; Q -0.093 ± 0.059; S -0.111 ± 0.042; E -0.393 ± 0.042; F 0.033 ± 0.087; R 0.04 ± 0.037; N -0.35 ± 0.11; P -0.502 ± 0.068; H 0.029 ± 0.06; A -0.256 ± 0.039; Y -0.174 ± 0.085; L -0.021 ± 0.04; K 0.048 ± 0.066; W -0.186 ± 0.051; D -0.511 ± 0.08; T -0.02 ± 0.05; M -0.083 ± 0.058
N33: Y -0.255 ± 0.13; M -0.128 ± 0.061; L -0.072 ± 0.041; F -0.29 ± 0.091; W -0.054 ± 0.064; H 0.016 ± 0.11; K -0.011 ± 0.055; E -0.269 ± 0.059; T 0.052 ± 0.048; I -0.117 ± 0.073; R 0.008 ± 0.04; V -0.115 ± 0.047; P -0.386 ± 0.064; A -0.219 ± 0.05; C -0.163 ± 0.1; Q -0.047 ± 0.058; S -0.016 ± 0.053; D -0.376 ± 0.076; G -0.221 ± 0.047
F34: Y 0.038 ± 0.07; V -0.541 ± 0.054; S -0.54 ± 0.045; H -0.544 ± 0.081; C -0.547 ± 0.06; Q -0.447 ± 0.049; P -0.458 ± 0.058; D -0.578 ± 0.083; E -0.56 ± 0.051; L -0.698 ± 0.044; N -0.468 ± 0.085; T -0.428 ± 0.048; R -0.74 ± 0.042; I -0.372 ± 0.063; G -0.554 ± 0.042; W 0.089 ± 0.053; K -0.725 ± 0.071; M -0.56 ± 0.05
V38: W -0.988 ± 0.092; R -0.654 ± 0.047; E -0.554 ± 0.076; S -0.46 ± 0.052; L -0.081 ± 0.039; M -0.231 ± 0.06; P -0.67 ± 0.051; F -0.352 ± 0.12; D -0.57 ± 0.097; K -0.511 ± 0.071; Q -0.704 ± 0.063; I -0.168 ± 0.09; Y -0.774 ± 0.11; N -0.445 ± 0.12; T -0.481 ± 0.069; G -0.557 ± 0.057; A -0.196 ± 0.052
G47: F -0.945 ± 0.11; E -0.773 ± 0.063; C -0.976 ± 0.11; I -0.897 ± 0.15; K -0.81 ± 0.093; M -0.874 ± 0.07; H -0.555 ± 0.11
P29: H -0.105 ± 0.1; E -0.022 ± 0.056; T -0.111 ± 0.045; M -0.114 ± 0.046; Y -0.259 ± 0.073; A -0.005 ± 0.045; R -0.08 ± 0.032; W -0.274 ± 0.042; L -0.273 ± 0.038; S -0.04 ± 0.04; K -0.061 ± 0.047; C -0.198 ± 0.056; I -0.205 ± 0.081; F -0.28 ± 0.082; G 0.052 ± 0.043; D -0.051 ± 0.097; V -0.205 ± 0.045
V40: E -0.555 ± 0.058; T -0.541 ± 0.054; P -0.442 ± 0.057; R -0.811 ± 0.063; W -1.3 ± 0.18; Q -0.542 ± 0.056; L -0.199 ± 0.041; D -0.577 ± 0.08; A -0.501 ± 0.051; S -0.703 ± 0.054; Y -0.809 ± 0.12; C -0.289 ± 0.1; N -0.617 ± 0.092; I -0.514 ± 0.072; K -0.851 ± 0.078; G -0.681 ± 0.062; M -0.312 ± 0.061; H -0.783 ± 0.14; F -0.564 ± 0.088
S39: F -0.099 ± 0.057; W -0.119 ± 0.053; V -0.038 ± 0.046; Q -0.034 ± 0.054; I -0.12 ± 0.08; M -0.056 ± 0.059; A -0.067 ± 0.041; N -0.138 ± 0.069; L -0.267 ± 0.041; C -0.064 ± 0.077; Y -0.051 ± 0.075; P -0.703 ± 0.08; K -0.05 ± 0.051; G -0.55 ± 0.046; D -0.542 ± 0.074; E -0.146 ± 0.062; H -0.081 ± 0.066; R 0.029 ± 0.035
F43: L -0.126 ± 0.043; T -0.195 ± 0.058; M -0.255 ± 0.077; D -0.628 ± 0.1; H 0.014 ± 0.099; P -0.649 ± 0.087; K -0.317 ± 0.063; R -0.482 ± 0.036; G -0.63 ± 0.042; A -0.124 ± 0.047; I -0.197 ± 0.1; C -0.262 ± 0.085; S -0.272 ± 0.05; N -0.437 ± 0.13; E -0.44 ± 0.063
K32: R -0.052 ± 0.045; E -0.077 ± 0.07; P -0.099 ± 0.06; I -0.178 ± 0.1; H -0.249 ± 0.088; L -0.179 ± 0.044; G 0.001 ± 0.062; W -0.483 ± 0.083; Q -0.129 ± 0.061; Y -0.187 ± 0.1; T -0.118 ± 0.058; S -0.138 ± 0.054; F -0.516 ± 0.093; N -0.192 ± 0.088; M -0.178 ± 0.061; D -0.332 ± 0.11; A -0.037 ± 0.059
E42: S 0.028 ± 0.045; G 0.011 ± 0.046; D -0.137 ± 0.093; M -0.1 ± 0.061; A 0.016 ± 0.056; K -0.046 ± 0.057; F -0.355 ± 0.093; Q -0.05 ± 0.05; H 0.014 ± 0.11; C -0.161 ± 0.06; Y -0.131 ± 0.12; L -0.255 ± 0.04; W -0.3 ± 0.044; P 0.053 ± 0.047; R -0.032 ± 0.033; T -0.048 ± 0.051; I -0.407 ± 0.11
G41: E -0.611 ± 0.074; I -1.41 ± 0.36; H -0.737 ± 0.17; N -0.853 ± 0.2; C -0.911 ± 0.14; W -0.825 ± 0.12; T -1.17 ± 0.11; Y -1.13 ± 0.39; Q -0.979 ± 0.13; L -0.91 ± 0.07; F -1.18 ± 0.21; P -0.645 ± 0.095; R -0.941 ± 0.06; M -0.888 ± 0.095; S -0.945 ± 0.062; D -0.761 ± 0.1
G45: Q -0.395 ± 0.066; K -0.108 ± 0.051; C -0.038 ± 0.082; E -0.484 ± 0.053; R -0.265 ± 0.04; F -0.373 ± 0.075; P -0.975 ± 0.076; N -0.594 ± 0.12; H -0.619 ± 0.15; Y -0.422 ± 0.096; W -0.582 ± 0.065; M -0.585 ± 0.072; L -0.591 ± 0.047; V -0.345 ± 0.044; A 0.069 ± 0.039; D -0.645 ± 0.076; T -0.246 ± 0.048; S -0.146 ± 0.04; I -0.487 ± 0.089
V44: S -0.086 ± 0.044; A -0.18 ± 0.044; K -0.016 ± 0.053; Y -0.099 ± 0.11; G -0.414 ± 0.04; E -0.132 ± 0.058; T -0.015 ± 0.061; H -0.102 ± 0.15; C 0.033 ± 0.1; W -0.112 ± 0.049; D -0.238 ± 0.073; M -0.045 ± 0.068; I -0.04 ± 0.075; L -0.14 ± 0.052; R -0.051 ± 0.035; F -0.195 ± 0.15; Q -0.074 ± 0.059; P -0.789 ± 0.11
T36: S -0.204 ± 0.041; M -0.749 ± 0.073; Q -0.548 ± 0.059; C 0.046 ± 0.073; I -1.1 ± 0.095; D -0.6 ± 0.1; F -1.38 ± 0.32; P -0.671 ± 0.071; K -0.689 ± 0.075; W -1.12 ± 0.1; L -1.04 ± 0.066; G -0.664 ± 0.047; N -0.674 ± 0.11; Y -0.449 ± 0.12; A -0.251 ± 0.047; V -0.684 ± 0.049; R -0.768 ± 0.042
